Data from patent US20250041430A1, “CONJUGATE COMPOUND AND METHOD FOR PRODUCING CONJUGATE COMPOUND” (NIPPON SHOKUBAI CO., LTD., priority 2021, published 2025).

Legend:
[1] = system: complement (SC5b-9) in human serum; test: Evaluation of complement activation (1), MicroVue SC5b-9 Plus EIA; settings: 37° C., 1 hour, compared with BSA, FIG. 2
Protocol: Using a microspectrophotometer (NanoDrop ND-1000, Thermo Fisher Scientific Inc.), Conjugates 1 to 4 subjected to ultrafiltration treatment were each diluted with PBS so that the value at a wavelength of 280 nm was 100. On the other hand, a conjugate (PEG-BSA) prepared according to the description in the section of [Preparation of conjugate with protein] except that maleimide PEG (SUNBRIGHT ME-100MA, NOF CORPORATION) was used instead of Polymer 1, and 100 mg of BSA were each dissolved in 1 mL of PBS to prepare a control group. Each solution (40 μL) and human serum (purchased from Tennessee Blood Service) (160 μL) were mixed and incubated at 37° C. for 1 hour. […] For each mixed solution, complement activation was evaluated using an enzyme immunoassay kit (MicroVue™ SC5b-9 Plus EIA, Quidel Corporation). The complement concentration was measured according to the manufacturer's protocol, and the measurement was performed on a plate reader (SH-9000, CORONA ELECTRIC Co., Ltd.). A reaction liquid obtained by reacting PBS with human serum was used as a negative control, and a ratio of the measured value of the negative control and a measured value in each reaction liquid was calculated by the following formula.
(Ratio with negative control)=(Measured value in each sample)÷(Measured value of negative control)

Exonuclease I [2] = target: T1, Exonuclease I (Escherichia coli, UniProt P04995); settings: room temperature (about 25° C.), 0, 10 and 20 minutes, FIG. 4
T1 sequence (P04995 whole entry, looked up): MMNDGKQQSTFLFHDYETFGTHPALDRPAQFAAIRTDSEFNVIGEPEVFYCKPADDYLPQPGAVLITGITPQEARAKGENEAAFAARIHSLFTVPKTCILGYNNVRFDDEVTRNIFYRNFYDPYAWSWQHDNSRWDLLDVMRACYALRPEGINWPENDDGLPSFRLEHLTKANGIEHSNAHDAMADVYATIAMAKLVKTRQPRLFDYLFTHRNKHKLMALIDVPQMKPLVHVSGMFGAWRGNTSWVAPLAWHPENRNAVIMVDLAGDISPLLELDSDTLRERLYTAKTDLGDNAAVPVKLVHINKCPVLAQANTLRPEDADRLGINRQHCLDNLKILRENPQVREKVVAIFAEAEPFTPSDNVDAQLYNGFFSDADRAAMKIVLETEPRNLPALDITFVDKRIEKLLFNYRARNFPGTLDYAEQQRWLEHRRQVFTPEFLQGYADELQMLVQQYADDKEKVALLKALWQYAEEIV
Protocol: (§1) Quantitative analysis of PGLMA-Mal-nucleic acid and an unmodified nucleic acid in a nucleic acid degradation test described below was performed by ion exchange chromatography. At this time, the analysis conditions were as follows. […]
(§2) To a test tube, 42.5 μL (1.00 nmol) of the PGLMA-Mal-nucleic acid solution obtained in the section of [Preparation of conjugate of Polymer 1 and oligonucleic acid], 5 μL of 10× buffer solution (670 mM Glycine-KOH (pH 9.5), 10 mM DTT, 67 mM MgCl2), 2.5 μL of ultrapure water, and 0.5 μL of Exonuclease I (Takara Bio Inc.) (0.05 Unit/L as the final concentration of Exonuclease I in the mixed solution) were added and mixed, and the mixture was allowed to stand still at room temperature (about 25° C.). […] After 0, 10, and 20 minutes from the start of the reaction, the reaction liquid was collected and analyzed under the analysis conditions in the section of [Analysis conditions of conjugate of Polymer 1 and oligonucleic acid] or the section of [Analysis conditions of unmodified oligonucleic acid], and a residual rate of the nucleic acid was calculated from the following formula.

[3] = system: complement (SC5b-9) in human serum; test: Evaluation of complement activation (2), MicroVue SC5b-9 Plus EIA; settings: 37° C., 1 hour, compared with the oligonucleic acid, FIG. 5
Source text: Using a microspectrophotometer (NanoDrop ND-1000, Thermo Fisher Scientific Inc.), Conjugates 5 and 6 thus obtained were each diluted with PBS so that the value at a wavelength of 260 nm was 100. On the other hand, a conjugate (PEG-nucleic acid) prepared according to the description in the section of [Preparation of conjugate of polymer and oligonucleic acid] except that maleimide PEG (SUNBRIGHT ME-100MA, NOF CORPORATION) was used instead of Polymer 3, and the oligonucleic acid (base sequence (5′-d (TAGCACCATGGTTT)-3′)) described in Example 2 were each dissolved in 20 μL of PBS so that the value at a wavelength of 260 nm was 100 by the method described above to prepare a control group. Each solution (4 μL) and human serum (purchased from Tennessee Blood Service) (16 μL) were mixed and incubated at 37° C. for 1 hour. […] For each mixed solution, complement activation was evaluated using an enzyme immunoassay kit (MicroVue™ SC5b-9 Plus EIA, Quidel Corporation). The complement concentration was measured according to the manufacturer's protocol, and the measurement was performed on a plate reader (SH-9000, CORONA ELECTRIC Co., Ltd.). A reaction liquid obtained by reacting PBS with human serum was used as a negative control, and a ratio of the measured value of the negative control and a measured value in each reaction liquid was calculated by the following formula.

Exonuclease I [4] = target: Exonuclease I (Escherichia coli, UniProt P04995); settings: room temperature (about 25° C.), 0, 10 and 20 minutes, FIG. 4; remark: listed apart in the source
Protocol: as §1, §2

PEG-BSA: conjugate with BSA prepared using maleimide PEG (SUNBRIGHT ME-100MA) instead of Polymer 1
complement activation (ratio with negative control) [1]: strong complement activation occurred

Conjugate 5: maleimide group of Polymer 1 bonded to the thiol group of the oligonucleic acid 5′-d (TAGCACCATGGTTT)-3′ (DNA, backbone not given here; conjugated to polymer via maleimide-thiol, further chemistry not fully specified)
degradation of the nucleic acid (residual rate of the nucleic acid) (Exonuclease I [2]): remarkable degradation of the nucleic acid was not observed
complement activation (ratio with negative control) [3]: no large difference from the measured value of the oligonucleic acid

5′-d (TAGCACCATGGTTT)-3′ [unmodified nucleic acid]
degradation of the nucleic acid (residual rate of the nucleic acid) (Exonuclease I [4]): degradation of the nucleic acid was observed over time
